Data on eight molecules can be found in publication PMC8673838, “MCPH1 inhibits Condensin II during interphase by regulating its SMC2-Kleisin interface” (eLife, 2021).

Settings in all cases: both partners purified
The target in test [1] is T1, human condensin II pentameric complex (SMC2, SMC4, NCAPH2, NCAPD3, NCAPG2) (human, UniProt O95347 1-1197; Q9NTJ3 1-1288; Q6IBW4 1-605; P42695 1-1498; Q86XI2 1-1143).
T1 construct: SMC2, human, subunit of condensin II; SMC4, human, subunit of condensin II; NCAPH2, human, kleisin subunit of condensin II; NCAPD3 (CAP-D3), human, HAWK subunit of condensin II; NCAPG2 (CAPG2), human, HAWK subunit of condensin II; It says only 'strep-tagged condensin II'; also called pentameric condensin II; strep-tagged condensin II; source: insect cells, purified as previously described (Kong …)
T1 sequence (O95347 whole entry, chain 1 of 4): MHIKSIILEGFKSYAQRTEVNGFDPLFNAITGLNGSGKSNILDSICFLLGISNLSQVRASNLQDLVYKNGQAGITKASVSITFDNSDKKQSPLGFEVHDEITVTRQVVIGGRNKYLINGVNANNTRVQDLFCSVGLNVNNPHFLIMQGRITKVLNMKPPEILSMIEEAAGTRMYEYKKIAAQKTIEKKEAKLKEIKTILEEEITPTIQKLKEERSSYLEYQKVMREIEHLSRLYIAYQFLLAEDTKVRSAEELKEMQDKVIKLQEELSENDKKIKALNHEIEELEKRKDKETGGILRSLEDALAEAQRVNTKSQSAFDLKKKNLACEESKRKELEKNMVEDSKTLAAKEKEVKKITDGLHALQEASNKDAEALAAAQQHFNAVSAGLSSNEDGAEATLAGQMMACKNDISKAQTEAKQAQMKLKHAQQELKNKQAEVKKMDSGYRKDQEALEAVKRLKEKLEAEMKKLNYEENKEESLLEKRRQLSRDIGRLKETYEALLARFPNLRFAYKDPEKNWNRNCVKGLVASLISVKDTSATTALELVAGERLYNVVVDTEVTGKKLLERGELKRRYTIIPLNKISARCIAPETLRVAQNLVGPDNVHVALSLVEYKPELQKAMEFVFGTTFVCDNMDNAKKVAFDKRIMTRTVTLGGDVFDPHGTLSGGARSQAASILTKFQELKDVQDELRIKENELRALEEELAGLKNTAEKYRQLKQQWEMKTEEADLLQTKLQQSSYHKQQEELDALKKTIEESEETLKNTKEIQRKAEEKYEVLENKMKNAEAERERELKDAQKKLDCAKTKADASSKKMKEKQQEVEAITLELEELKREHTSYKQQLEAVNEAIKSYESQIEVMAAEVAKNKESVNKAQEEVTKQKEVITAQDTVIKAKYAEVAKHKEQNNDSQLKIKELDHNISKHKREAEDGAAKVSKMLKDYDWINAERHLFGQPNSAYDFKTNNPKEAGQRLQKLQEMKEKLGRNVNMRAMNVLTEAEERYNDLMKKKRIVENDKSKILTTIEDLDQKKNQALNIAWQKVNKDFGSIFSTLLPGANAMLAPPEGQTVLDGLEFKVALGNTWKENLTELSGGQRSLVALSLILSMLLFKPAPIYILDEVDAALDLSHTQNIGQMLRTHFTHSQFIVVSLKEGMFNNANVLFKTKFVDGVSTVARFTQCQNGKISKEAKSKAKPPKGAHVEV
T1 sequence (Q9NTJ3 whole entry, chain 2 of 4): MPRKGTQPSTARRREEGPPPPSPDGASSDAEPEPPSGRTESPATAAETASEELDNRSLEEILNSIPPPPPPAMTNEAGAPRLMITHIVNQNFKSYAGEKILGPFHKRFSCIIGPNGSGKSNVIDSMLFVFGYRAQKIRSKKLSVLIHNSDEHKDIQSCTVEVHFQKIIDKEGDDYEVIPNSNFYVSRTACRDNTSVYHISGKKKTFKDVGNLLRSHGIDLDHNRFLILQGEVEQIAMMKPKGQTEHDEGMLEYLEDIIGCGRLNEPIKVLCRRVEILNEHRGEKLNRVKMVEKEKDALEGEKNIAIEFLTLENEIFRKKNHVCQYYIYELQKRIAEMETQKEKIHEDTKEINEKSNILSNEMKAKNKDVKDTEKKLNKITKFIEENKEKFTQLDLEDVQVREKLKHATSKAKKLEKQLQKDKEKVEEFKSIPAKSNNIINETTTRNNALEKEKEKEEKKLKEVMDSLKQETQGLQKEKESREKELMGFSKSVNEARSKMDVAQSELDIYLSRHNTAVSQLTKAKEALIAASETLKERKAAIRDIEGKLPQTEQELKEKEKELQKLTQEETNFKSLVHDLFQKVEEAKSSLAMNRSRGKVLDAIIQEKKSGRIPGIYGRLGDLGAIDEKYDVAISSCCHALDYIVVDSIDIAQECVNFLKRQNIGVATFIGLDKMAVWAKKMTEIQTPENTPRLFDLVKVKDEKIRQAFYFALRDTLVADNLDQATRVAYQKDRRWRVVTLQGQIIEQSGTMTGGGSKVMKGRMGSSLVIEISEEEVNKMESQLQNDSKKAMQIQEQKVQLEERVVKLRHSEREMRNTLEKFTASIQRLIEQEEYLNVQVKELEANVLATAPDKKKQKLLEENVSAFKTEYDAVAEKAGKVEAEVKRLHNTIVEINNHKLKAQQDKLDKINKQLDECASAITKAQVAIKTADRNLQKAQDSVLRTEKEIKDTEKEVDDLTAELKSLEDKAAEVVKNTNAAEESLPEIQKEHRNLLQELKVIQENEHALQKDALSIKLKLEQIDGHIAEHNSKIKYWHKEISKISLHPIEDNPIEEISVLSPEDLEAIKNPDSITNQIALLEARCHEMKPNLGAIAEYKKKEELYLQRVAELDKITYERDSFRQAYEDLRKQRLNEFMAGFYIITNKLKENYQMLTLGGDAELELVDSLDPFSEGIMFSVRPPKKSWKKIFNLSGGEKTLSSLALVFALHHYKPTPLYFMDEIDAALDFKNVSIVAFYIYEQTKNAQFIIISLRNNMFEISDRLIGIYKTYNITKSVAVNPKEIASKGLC
T1 sequence (Q6IBW4 whole entry, chain 3 of 4): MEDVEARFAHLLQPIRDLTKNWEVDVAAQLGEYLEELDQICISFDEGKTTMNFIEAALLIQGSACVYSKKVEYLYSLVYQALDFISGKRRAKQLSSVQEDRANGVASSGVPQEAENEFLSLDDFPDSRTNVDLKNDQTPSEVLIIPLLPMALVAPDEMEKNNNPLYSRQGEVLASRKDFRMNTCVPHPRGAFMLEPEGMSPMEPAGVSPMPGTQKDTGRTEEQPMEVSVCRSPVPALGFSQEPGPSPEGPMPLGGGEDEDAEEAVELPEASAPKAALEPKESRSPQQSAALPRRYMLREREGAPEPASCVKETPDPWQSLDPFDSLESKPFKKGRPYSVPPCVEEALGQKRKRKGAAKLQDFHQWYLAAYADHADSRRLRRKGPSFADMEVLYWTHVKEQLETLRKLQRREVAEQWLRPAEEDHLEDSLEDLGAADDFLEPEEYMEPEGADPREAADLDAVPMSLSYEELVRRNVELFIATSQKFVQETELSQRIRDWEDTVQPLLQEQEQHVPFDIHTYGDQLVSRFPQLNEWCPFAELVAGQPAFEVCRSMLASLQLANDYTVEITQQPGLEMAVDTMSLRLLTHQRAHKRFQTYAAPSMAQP
T1 sequence (P42695 whole entry, chain 4 of 4): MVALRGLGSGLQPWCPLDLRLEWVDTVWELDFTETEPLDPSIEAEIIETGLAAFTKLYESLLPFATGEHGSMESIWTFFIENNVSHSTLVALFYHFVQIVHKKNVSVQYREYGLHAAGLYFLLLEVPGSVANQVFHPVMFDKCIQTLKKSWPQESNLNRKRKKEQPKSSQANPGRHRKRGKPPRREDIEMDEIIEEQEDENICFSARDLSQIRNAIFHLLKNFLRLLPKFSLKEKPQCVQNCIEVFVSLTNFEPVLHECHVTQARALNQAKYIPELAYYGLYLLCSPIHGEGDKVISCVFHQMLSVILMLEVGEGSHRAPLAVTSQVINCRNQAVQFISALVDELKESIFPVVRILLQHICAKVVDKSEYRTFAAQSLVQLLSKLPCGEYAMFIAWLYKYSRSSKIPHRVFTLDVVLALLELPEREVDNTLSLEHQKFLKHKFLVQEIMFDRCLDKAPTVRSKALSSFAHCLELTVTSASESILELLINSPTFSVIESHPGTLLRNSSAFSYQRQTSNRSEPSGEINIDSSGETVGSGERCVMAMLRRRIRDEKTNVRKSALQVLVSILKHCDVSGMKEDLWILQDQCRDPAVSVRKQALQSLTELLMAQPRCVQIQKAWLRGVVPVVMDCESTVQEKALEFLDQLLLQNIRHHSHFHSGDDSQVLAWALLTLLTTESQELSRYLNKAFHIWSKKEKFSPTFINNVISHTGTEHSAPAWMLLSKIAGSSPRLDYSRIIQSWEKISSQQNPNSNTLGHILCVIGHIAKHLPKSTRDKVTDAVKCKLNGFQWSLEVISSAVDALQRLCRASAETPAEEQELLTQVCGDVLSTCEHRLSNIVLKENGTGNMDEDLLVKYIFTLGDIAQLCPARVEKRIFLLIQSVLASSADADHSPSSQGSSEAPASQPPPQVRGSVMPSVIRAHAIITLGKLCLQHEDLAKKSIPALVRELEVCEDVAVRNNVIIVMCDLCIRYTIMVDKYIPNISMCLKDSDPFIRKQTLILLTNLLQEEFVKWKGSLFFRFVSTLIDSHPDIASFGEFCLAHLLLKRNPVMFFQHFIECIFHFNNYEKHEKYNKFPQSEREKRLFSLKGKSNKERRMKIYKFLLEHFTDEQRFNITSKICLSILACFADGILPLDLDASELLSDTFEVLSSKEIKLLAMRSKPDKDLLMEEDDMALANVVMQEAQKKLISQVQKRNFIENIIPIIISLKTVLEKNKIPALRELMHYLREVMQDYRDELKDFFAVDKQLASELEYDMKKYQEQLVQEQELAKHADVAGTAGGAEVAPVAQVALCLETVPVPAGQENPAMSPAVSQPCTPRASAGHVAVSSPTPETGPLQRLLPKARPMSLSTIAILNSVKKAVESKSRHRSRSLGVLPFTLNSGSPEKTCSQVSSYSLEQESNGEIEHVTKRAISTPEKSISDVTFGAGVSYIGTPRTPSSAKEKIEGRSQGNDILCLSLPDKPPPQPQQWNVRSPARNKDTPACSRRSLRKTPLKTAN
Description: fluorescence polarisation; direct binding; 0.3 µM 5-FAM peptide, 0.625-5 µM condensin II complex; 20 mM Tris pH 7.5, 200 mM NaCl, 1 mM DTT; room temperature. On the technique in general: Fluorescence polarisation rises when a labelled molecule tumbles more slowly, as on binding a larger partner.

Test [2] concerns the target T1, human condensin II pentameric complex …. Description: pull-down; strep-tagged full-length MCPH1 and condensin II separately purified, mixed on strep-tactin sepharose; SDS-PAGE, silver stain.
Test [3] has as its target T2, condensin II with Q-loop mutation (SMC2 Q147L, SMC4 Q229L) (human, UniProt O95347 1-1197; Q9NTJ3 1-1288; Q6IBW4 1-605; P42695 1-1498; Q86XI2 1-1143, SMC2 Q147L | SMC4 Q229L).
T2 construct: SMC2, human, Q-loop mutant; SMC4, human, Q-loop mutant; NCAPH2, human; NCAPD3, human; NCAPG2, human; also called ATPase hydrolysis deficient Q-loop mutant condensin II; source: insect cells, purified as previously described (Kong et al., 2020); copies: + + + +
Description: SEC; complex of condensin II (wild type or Q-loop mutant) with MCPH1_(1-435)MBP purified by gel filtration on Superose 6 10/300 in 20 mM Tris pH 7.5, 150 mM NaCl, 1 mM DTT, for ATPase assays. Background: SEC sorts molecules by how far they enter the pores of the column.

Test [4] has as its target T1, human condensin II pentameric complex …. Described as above.
For test [5] the target is unchanged. Description: pull-down; strep-tagged condensin complexes (0.1 µM) with at least a 10-fold molecular excess of MBP MCPH1 constructs or MBP, Strep-tactin sepharose, 20 mM Tris pH 7.5, 150 mM NaCl, 10 % glycerol, 1 mM DTT; five washes; Coomassie or silver stain.
Test [6] shares this target. Description: fluorescence polarisation; competition; 0.63 µM condensin II and 0.3 µM 5-FAM peptide fixed, unlabelled peptide in two-fold series; 20 mM Tris pH 7.5, 200 mM NaCl, 1 mM DTT; fit for directly competitive binding.

Non-standard residues stand in square brackets, D forms with d. No end group written: not given here. 5‑FAM = 5-carboxyfluorescein label; pS = N[C@@H](COP(=O)(O)O)C(=O)O

T2 sequence (O95347 whole entry Q147L, chain 1 of 4): as the sequence (O95347 whole entry, chain 1 of 4) above, with Q147L counted along it
T2 sequence (Q9NTJ3 whole entry Q229L, chain 2 of 4): as the sequence (Q9NTJ3 whole entry, chain 2 of 4) above, with Q229L counted along it
T2 sequence (Q6IBW4 whole entry, stated change not applied, chain 3 of 4): as the sequence (Q6IBW4 whole entry, chain 3 of 4) above
T2 sequence (P42695 whole entry, stated change not applied, chain 4 of 4): as the sequence (P42695 whole entry, chain 4 of 4) above

B1: 5-FAM-labelled MCPH1_(407-424) peptide (peptide)
peptide: {5‑FAM}-CGESSYDDYFSPDNLKER
notes: also called 5FAM-MCPH1; source: synthetic peptide (Genscript)
The Kd is the constant that tells how readily two partners part at equilibrium. A lower Kd goes with tighter binding. The molecule B1 yielded a Kd in test [1] of 0.64 µM.

B2: strep-tagged full-length human MCPH1 (natural protein, UniProt Q8NEM0 1-835, looked up)
chain: MAAPILKDVVAYVEVWSSNGTENYSKTFTTQLVDMGAKVSKTFNKQVTHVIFKDGYQSTWDKAQKRGVKLVSVLWVEKCRTAGAHIDESLFPAANMNEHLSSLIKKKRKCMQPKDFNFKTPENDKRFQKKFEKMAKELQRQKTNLDDDVPILLFESNGSLIYTPTIEINSRHHSAMEKRLQEMKEKRENLSPTSSQMIQQSHDNPSNSLCEAPLNISRDTLCSDEYFAGGLHSSFDDLCGNSGCGNQERKLEGSINDIKSDVCISSLVLKANNIHSSPSFTHLDKSSPQKFLSNLSKEEINLQRNIAGKVVTPDQKQAAGMSQETFEEKYRLSPTLSSTKGHLLIHSRPRSSSVKRKRVSHGSHSPPKEKCKRKRSTRRSIMPRLQLCRSEDRLQHVAGPALEALSCGESSYDDYFSPDNLKERYSENLPPESQLPSSPAQLSCRSLSKKERTSIFEMSDFSCVGKKTRTVDITNFTAKTISSPRKTGNGEGRATSSCVTSAPEEALRCCRQAGKEDACPEGNGFSYTIEDPALPKGHDDDLTPLEGSLEEMKEAVGLKSTQNKGTTSKISNSSEGEAQSEHEPCFIVDCNMETSTEEKENLPGGYSGSVKNRPTRHDVLDDSCDGFKDLIKPHEELKKSGRGKKPTRTLVMTSMPSEKQNVVIQVVDKLKGFSIAPDVCETTTHVLSGKPLRTLNVLLGIARGCWVLSYDWVLWSLELGHWISEEPFELSHHFPAAPLCRSECHLSAGPYRGTLFADQPAMFVSPASSPPVAKLCELVHLCGGRVSQVPRQASIVIGPYSGKKKATVKYLSEKWVLDSITQHKVCAPENYLLSQ
notes: MCPH1, human, full length; pLIB MCPH1 from Genscript; also called full-length MCPH1; microcephalin; source: High Five insect cells (baculovirus), purified (StrepTrap, SEC)
On to B2, for which the binding result in test [2] was “binds”.

B3: MCPH1_(1-435)MBP after removal of the N-terminal 6xHis tag (domain or fragment, human, UniProt Q8NEM0 1-435, looked up)
chain: MAAPILKDVVAYVEVWSSNGTENYSKTFTTQLVDMGAKVSKTFNKQVTHVIFKDGYQSTWDKAQKRGVKLVSVLWVEKCRTAGAHIDESLFPAANMNEHLSSLIKKKRKCMQPKDFNFKTPENDKRFQKKFEKMAKELQRQKTNLDDDVPILLFESNGSLIYTPTIEINSRHHSAMEKRLQEMKEKRENLSPTSSQMIQQSHDNPSNSLCEAPLNISRDTLCSDEYFAGGLHSSFDDLCGNSGCGNQERKLEGSINDIKSDVCISSLVLKANNIHSSPSFTHLDKSSPQKFLSNLSKEEINLQRNIAGKVVTPDQKQAAGMSQETFEEKYRLSPTLSSTKGHLLIHSRPRSSSVKRKRVSHGSHSPPKEKCKRKRSTRRSIMPRLQLCRSEDRLQHVAGPALEALSCGESSYDDYFSPDNLKERYSENLPPESQL
notes: Same construct as m11, His tag cut off by TEV before gel filtration with condensin II; source: E. coli BL21 (DE3) pLysS, purified (Ni-NTA, ion exchange or heparin, SEC), treated with TEV protease; not shown: His6, N-terminal, cleaved; MBP, C-terminal, kept
B3: the binding result in test [3] and in test [4] was “binds” in each case.

B4: MBP-MCPH1_(1-435) (domain or fragment, human, UniProt Q8NEM0 1-435, looked up)
chain: B3 chain
notes: source: E. coli BL21 (DE3) pLysS, purified (Ni-NTA, ion exchange or heparin); not shown: MBP, N-terminal, kept
As to B4, in test [5], the binding result was “binds”.

B5: MBP-MCPH1_(196-435) (domain or fragment, human, UniProt Q8NEM0 196-435, looked up)
chain: QMIQQSHDNPSNSLCEAPLNISRDTLCSDEYFAGGLHSSFDDLCGNSGCGNQERKLEGSINDIKSDVCISSLVLKANNIHSSPSFTHLDKSSPQKFLSNLSKEEINLQRNIAGKVVTPDQKQAAGMSQETFEEKYRLSPTLSSTKGHLLIHSRPRSSSVKRKRVSHGSHSPPKEKCKRKRSTRRSIMPRLQLCRSEDRLQHVAGPALEALSCGESSYDDYFSPDNLKERYSENLPPESQL
notes: as for B4
In the case of B5, in test [5], the binding result is “binds”. Turning to CGESSYDDYFSPDNLKER (source: synthetic peptide (Genscript)) [MCPH1_(407-424) peptide, wild-type, unlabelled], the Kd in test [6] is 5.3 ± 1 µM.

B6: MCPH1_(407-424) peptide phosphorylated at serine 417 (peptide)
peptide: CGESSYDDYF[pS]PDNLKER
notes: S417 is phosphoserine; also called MCPH1pS417; source: synthetic peptide (Genscript)
On to B6, for which binding in test [6] was characterised by a dissociation constant (Kd) of 53 ± 8 µM.

B7: MBP-MCPH1_(348-469) (domain or fragment, human, UniProt Q8NEM0 348-469, looked up)
chain: RPRSSSVKRKRVSHGSHSPPKEKCKRKRSTRRSIMPRLQLCRSEDRLQHVAGPALEALSCGESSYDDYFSPDNLKERYSENLPPESQLPSSPAQLSCRSLSKKERTSIFEMSDFSCVGKKTR
notes: MCPH1, human, residues 348-469; This construct is named in the results only; also called His-MBP-MCPH1 348-469; source: E. coli, purified; not shown: MBP, N-terminal, kept
Regarding B7, the binding result in test [5] is recorded as “binds”.
